According to publication PMC13631358:

Target: tapasin-ERp57 heterodimer (ER-lumenal domain of tapasin, full-length ERp57 Cys36Ala), disulfide-linked (human) (UniProt P30101)
Assay: ITC; Crt or Crt^Δacidic (titrant, 500 µM) into tapasin-ERp57 heterodimer (analyte, 19 µM; no PaSta1 Fab named); 25 °C; 50 mM HEPES-NaOH pH 7.4, 150 mM NaCl, 1 mM CaCl2

Substance: calreticulin (amino acids 18-417) (from UniProt P27797 18-417) (natural protein)
- Kd: 4.2 µM
